Our source for the Kd values is paper PMC10786891, “Massively parallel profiling of RNA-targeting CRISPR-Cas13d”.

B1: target 2 MT 5'PFS CGA 3'PFS AUU (mixed)
RNA 1: CACCCGUGCAAAAUUGCAGGGGUCUAAAACCUUCUCCAAAUUGUUUCAUCCU
RNA 2: GGGAAUGGAUCCACAUCUACGAAUUCCGAAGGAUGAAACAAUUUGGAGAAGAUUAGAUCGGAAGAGCACACGU
B2: target 2 MT 5'PFS CGC 3'PFS AUC (mixed)
RNA 1: B1 RNA 1
RNA 2: B1 RNA 2 with A29C, U54C
B3: target 2 MT 5'PFS CUA 3'PFS UCC (mixed)
RNA 1: B1 RNA 1
RNA 2: B1 RNA 2 with G28U, A52U, U53C, U54C
B4: target 2 MT 5'PFS CUC 3'PFS CCG (mixed)
RNA 1: B1 RNA 1
RNA 2: B1 RNA 2 with G28U, A29C, A52C, U53C, U54G
B5: target 2 MT 5'PFS AUU 3'PFS AAA (mixed)
RNA 1: B1 RNA 1
RNA 2: B1 RNA 2 with C27A, G28U, A29U, U53A, U54A
B6: target 2 MT 5'PFS UGG 3'PFS ACU (mixed)
RNA 1: B1 RNA 1
RNA 2: B1 RNA 2 with C27U, A29G, U53C
B7: target 2 MT 5'PFS GGU 3'PFS CAU (mixed)
RNA 1: B1 RNA 1
RNA 2: B1 RNA 2 with C27G, A29U, A52C, U53A
B8: target 2 MT 5'PFS CUC 3'PFS UUG (mixed)
RNA 1: B1 RNA 1
RNA 2: B1 RNA 2 with G28U, A29C, A52U, U54G
B9: target 2 MT 5'PFS AUU 3'PFS AAU (mixed)
RNA 1: B1 RNA 1
RNA 2: B1 RNA 2 with C27A, G28U, A29U, U53A
B10: target 2 MT 5'PFS CGC 3'PFS AUG (mixed)
RNA 1: B1 RNA 1
RNA 2: B1 RNA 2 with A29C, U54G
B11: target 2 MT 5'PFS UGG 3'PFS ACC (mixed)
RNA 1: B1 RNA 1
RNA 2: B1 RNA 2 with C27U, A29G, U53C, U54C
B12: target 2 MT 5'PFS CGC 3'PFS AUA (mixed)
RNA 1: B1 RNA 1
RNA 2: B1 RNA 2 with A29C, U54A
B13: target 2 MT 5'PFS ACA 3'PFS ACU (mixed)
RNA 1: B1 RNA 1
RNA 2: B1 RNA 2 with C27A, G28C, U53C
B14: target 2 MT 5'PFS CUA 3'PFS UCU (mixed)
RNA 1: B1 RNA 1
RNA 2: B1 RNA 2 with G28U, A52U, U53C
B15: target 2 MT 5'PFS GGU 3'PFS CAC (mixed)
RNA 1: B1 RNA 1
RNA 2: B1 RNA 2 with C27G, A29U, A52C, U53A, U54C
B16: target 2 MT 5'PFS GCA 3'PFS UUA (mixed)
RNA 1: B1 RNA 1
RNA 2: B1 RNA 2 with C27G, G28C, A52U, U54A
B17: target 2 MT 5'PFS CGC 3'PFS AUU (mixed)
RNA 1: B1 RNA 1
RNA 2: B1 RNA 2 with A29C
B18: target 2 MT 5'PFS AGA 3'PFS UGU (mixed)
RNA 1: B1 RNA 1
RNA 2: B1 RNA 2 with C27A, A52U, U53G
B19: target 2 MT 5'PFS GAU 3'PFS UCU (mixed)
RNA 1: B1 RNA 1
RNA 2: B1 RNA 2 with C27G, G28A, A29U, A52U, U53C
B20: target 2 MT 5'PFS AUU 3'PFS AAG (mixed)
RNA 1: B1 RNA 1
RNA 2: B1 RNA 2 with C27A, G28U, A29U, U53A, U54G
B21: target 2 MT 5'PFS GGU 3'PFS CAG (mixed)
RNA 1: B1 RNA 1
RNA 2: B1 RNA 2 with C27G, A29U, A52C, U53A, U54G
B22: target 2 MT 5'PFS GGU 3'PFS CAA (mixed)
RNA 1: B1 RNA 1
RNA 2: B1 RNA 2 with C27G, A29U, A52C, U53A, U54A
B23: target 2 MT 5'PFS ACA 3'PFS ACA (mixed)
RNA 1: B1 RNA 1
RNA 2: B1 RNA 2 with C27A, G28C, U53C, U54A
B24: target 2 MT 5'PFS CUC 3'PFS CCA (mixed)
RNA 1: B1 RNA 1
RNA 2: B1 RNA 2 with G28U, A29C, A52C, U53C, U54A
B25: target 2 MT 5'PFS UGG 3'PFS ACA (mixed)
RNA 1: B1 RNA 1
RNA 2: B1 RNA 2 with C27U, A29G, U53C, U54A
B26: target 2 MT 5'PFS UGG 3'PFS ACG (mixed)
RNA 1: B1 RNA 1
RNA 2: B1 RNA 2 with C27U, A29G, U53C, U54G
B27: target 2 MT 5'PFS CUA 3'PFS UCA (mixed)
RNA 1: B1 RNA 1
RNA 2: B1 RNA 2 with G28U, A52U, U53C, U54A
B28: target 2 MT 5'PFS AUU 3'PFS UAU (mixed)
RNA 1: B1 RNA 1
RNA 2: B1 RNA 2 with C27A, G28U, A29U, A52U, U53A
B29: target 2 MT 5'PFS CUC 3'PFS CCU (mixed)
RNA 1: B1 RNA 1
RNA 2: B1 RNA 2 with G28U, A29C, A52C, U53C
B30: target 2 MT 5'PFS ACC 3'PFS UAA (mixed)
RNA 1: B1 RNA 1
RNA 2: B1 RNA 2 with C27A, G28C, A29C, A52U, U53A, U54A
B31: target 2 MT 5'PFS AUG 3'PFS UUU (mixed)
RNA 1: B1 RNA 1
RNA 2: B1 RNA 2 with C27A, G28U, A29G, A52U
B32: target 1 insA 3' of 7,insG 3' of 3 (mixed)
RNA 1: CACCCGUGCAAAAAUGCAGGGGUCUAAAACUGAGCGGAUAACCUCUCUAUGG
RNA 2: GGGAAUGGAUCCACAUCUACGAAUUCGUACCAUAGAGAGGUUAUCACGCUGCACCGAGAUCGGAAGAGCACACGU
B33: target 1 A1C,C2G (mixed)
RNA 1: B32 RNA 1
RNA 2: GGGAAUGGAUCCACAUCUACGAAUUCGUACCAUAGAGAGGUUAUCCGCUGCCCGAGAUCGGAAGAGCACACGU
B34: target 1 insA 3' of 8,insA 3' of 8 (mixed)
RNA 1: B32 RNA 1
RNA 2: B32 RNA 2 with C45A, G48C, C49G, U50C, G51U
B35: target 1 C2G (mixed)
RNA 1: B32 RNA 1
RNA 2: B33 RNA 2 with C51A

Residue numbers refer to the chain shown, from its start. Numbers in names are those of the source.

For this data set, the target named is T1, EsCas13d, nuclease-dead (Eubacterium siraeum, UniProt B0MS50, R295A;H300A;R849A;H854A).
T1 sequence: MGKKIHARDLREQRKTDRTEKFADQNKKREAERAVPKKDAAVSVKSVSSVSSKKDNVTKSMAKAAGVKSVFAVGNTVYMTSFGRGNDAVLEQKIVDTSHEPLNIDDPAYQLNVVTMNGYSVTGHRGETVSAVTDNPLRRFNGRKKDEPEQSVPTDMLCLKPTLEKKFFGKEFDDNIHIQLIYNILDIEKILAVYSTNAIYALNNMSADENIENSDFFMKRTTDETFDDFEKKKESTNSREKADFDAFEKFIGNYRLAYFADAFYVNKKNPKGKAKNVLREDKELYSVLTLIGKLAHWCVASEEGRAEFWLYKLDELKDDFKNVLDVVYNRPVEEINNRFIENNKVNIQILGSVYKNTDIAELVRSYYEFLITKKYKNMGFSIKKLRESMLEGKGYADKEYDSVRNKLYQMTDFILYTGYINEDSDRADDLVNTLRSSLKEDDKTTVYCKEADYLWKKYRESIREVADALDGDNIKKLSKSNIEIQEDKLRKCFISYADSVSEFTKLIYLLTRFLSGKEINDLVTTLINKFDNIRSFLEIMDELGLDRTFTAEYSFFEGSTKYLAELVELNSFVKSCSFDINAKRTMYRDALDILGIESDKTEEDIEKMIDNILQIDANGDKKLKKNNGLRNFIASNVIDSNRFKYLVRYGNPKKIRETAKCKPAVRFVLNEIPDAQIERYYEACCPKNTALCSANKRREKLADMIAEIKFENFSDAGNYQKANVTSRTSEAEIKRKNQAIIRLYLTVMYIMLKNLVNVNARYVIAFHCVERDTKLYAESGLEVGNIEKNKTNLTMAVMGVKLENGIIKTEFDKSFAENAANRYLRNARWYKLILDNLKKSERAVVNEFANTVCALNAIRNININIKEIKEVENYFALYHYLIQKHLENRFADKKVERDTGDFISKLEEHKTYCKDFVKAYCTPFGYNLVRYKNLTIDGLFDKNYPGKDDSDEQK
Description: crRNA (strand 1, pre-loaded); Mg2+; 40 mM Tris-HCl pH 7.5, 150 mM NaCl, 6 mM MgCl2, 1 mM DTT, 0.1% Tween-20, 0.2 mg/ml BSA; 25 C; 10 min per concentration, then washed. As to conditions: tags: His6-TwinStrep-SUMO cleaved; N-terminal SNAP kept (SNAP-Surface 488); label: 3' end held by stalled T7 RNA polymerase.
Broadly, the Kd is the free concentration of one partner at which half of the binding sites on the other are occupied at equilibrium, for simple one-to-one binding. Higher therefore signals lower affinity. B1 had a Kd of 10.6 ± 3.3 nM.

Molecule B2 registered a Kd of 4.6 ± 0.6 nM.

As to B3, binding was characterised by a dissociation constant (Kd) of 3.4 ± 0.5 nM.

B4 registered a Kd of 2.21 ± 0.24 nM.

The molecule B5 registered a Kd of 4.7 ± 0.5 nM.

B6 displayed a Kd of 9.5 ± 1.3 nM.

In turn, B7 had a Kd of 14.9 ± 2.3 nM. Against the preceding molecule, the Kd is about 1.6-fold higher.

In turn, B8 had a Kd of 3.2 ± 0.5 nM. Compared with the last molecule, the Kd is about 4.7-fold lower.

B9 had a Kd of 7.1 ± 1.4 nM.

The molecule B10 had a Kd of 5 ± 0.6 nM. This Kd and that of the molecule before are within 1.5-fold of each other.

Molecule B11 displayed a Kd of 27 ± 6 nM. Compared with the last molecule, the Kd is about 5.4-fold higher.

Molecule B12 yielded a Kd of 4 ± 0.5 nM. This Kd lies about 6.8-fold lower than the previous one.

B13 had a Kd of 6.3 ± 1.3 nM.

B14 yielded a dissociation constant Kd of 3.6 ± 0.4 nM. This Kd is about 1.8-fold lower than that of the molecule before.

In turn, B15 gave a Kd of 14.8 ± 2.2 nM.

Molecule B16 yielded a Kd of 17 ± 4 nM.

Take B17: the Kd is 5 ± 0.8 nM.

Regarding B18, binding was characterised by a dissociation constant (Kd) of 9.5 ± 1.2 nM.

B19: the Kd came to 56 ± 15 nM. Against the preceding molecule, the Kd is about 5.9-fold higher.

Consider B20, for which the Kd came to 5.6 ± 0.6 nM.

Molecule B21 had a Kd of 13 ± 1 nM.

Turning to B22, the Kd is 8.6 ± 1.4 nM.

B23 had a Kd of 7.2 ± 2.3 nM.

B24 had a Kd of 4.8 ± 0.7 nM.

With B25, the Kd stood at 6 ± 0.7 nM.

B26 yielded a Kd of 5.5 ± 0.4 nM.

Turning to B27, the Kd worked out at 2.17 ± 0.35 nM.

The molecule B28 yielded a Kd of 5.6 ± 0.4 nM. This Kd is about 2.6-fold higher than that of the molecule before.

As to B29, the Kd worked out at 23 ± 7 nM.

B30: the Kd is approximately 12 nM.

The molecule B31 showed a Kd of 25 ± 6 nM.

B32 came in with a Kd of 4.65 ± 0.13 nM.

Take B33: binding was characterised by a dissociation constant (Kd) of 35 ± 4 nM.

On to B34, for which binding was put at a Kd of 32.2 ± 3.2 nM.

B35 yielded a Kd of 8.3 ± 0.6 nM.
